Source: the supplement of paper PMC10567573

B1: ADAMTSL2 (parent)
chain: KKPPEESTCFERPCFKWYTSPWSE
B2: RHOBTB1 (parent)
chain: TFGDHHKDRRFAYGRSDVVVLCFS

Variants of: B1
Test: protein stability index of a GFP-peptide fusion (GPS, HEK-293T) (PSI 1-6); higher = more stable
Settings: c terminus: a fixed tail appended
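Note: lentivirally expressed fusions sorted by FACS into six bins by GFP to DsRed ratio, PSI derived from sequencing read proportions per bin multiplied by bin number.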

Protein stability index, by site and new letter:
S23: G 1.91 | N 2.5 | A 1.74 | F 1.69 | D 2.48 | K 2.53 | V 2.23 | R 2.22 | Y 2.35 | H 2.55 | P 2.6 | M 2.04 | C 2.23 | W 2.19 | E 3.02 | T 1.87 | L 2.34 | I 2.6 | Q 2.47
W22: A 4.34 | H 3.6 | S 3.61 | M 2.6 | G 3.51 | R 2.95 | V 3.27 | L 3.07 | Q 3.82 | F 2.98 | D 3.79 | I 3.03 | T 3.97 | P 4 | C 3.35 | N 3.28 | E 4.18 | K 3.6 | Y 3.05
E24: G 2.27 | P 2.4 | H 2.04 | F 2.27 | I 1.73 | N 1.6 | V 1.83 | A 2.06 | T 1.97 | W 2.09 | R 1.83 | Q 2.37 | M 1.68 | S 2.07 | Y 2.11 | C 2.22 | D 2.76 | L 1.72 | K 1.82
S20: E 2.11 | L 1.95 | F 2.02 | W 4.33 | G 2.29 | V 1.93 | I 2.59 | T 2.15 | P 2.04 | Y 2.37 | D 2.42 | Q 2.35 | R 2.86 | C 1.99 | K 2.61 | N 2.58 | H 2.25 | M 2.08
P21: R 2.17 | Q 2.2 | G 2.16 | E 2.72 | D 3.04 | V 2.33 | W 1.68 | T 2.75 | Y 1.73 | I 2.38 | M 1.44 | A 2.41 | L 2.4 | K 2.7 | N 2.16 | F 1.78 | C 2.39 | S 1.87 | H 2.46

Variants of: B2
Test: as above
Settings: c terminus: a fixed tail appended

Protein stability index, by site and new letter:
Y13: E 1.93 | D 2.16 | T 1.62 | K 2.4 | N 2.36 | G 1.46 | C 2.38 | P 1.04 | Q 2.78 | M 1.55 | R 1.33 | A 1.36 | H 2.49 | S 2.66 | I 3.14
D8: S 2.76 | R 2.96 | N 2.29 | Q 4.86 | E 2.77 | W 3.29 | P 2.77 | Y 4.4 | L 4.19 | G 1.87 | H 2.82 | F 1.92
H6: Q 2.14 | L 3.15 | C 1.2 | F 2.33 | K 2.33 | T 1.94 | S 2.21 | E 3
F2: L 2.32 | A 1.63 | N 2.23 | D 2.19 | S 1.02 | E 1.31 | M 1.81 | P 3.35 | C 3.44 | H 1.85 | W 2.28 | I 2.17 | K 2.65
T1: E 2.06 | V 3.58 | L 2.59 | Q 2.25 | A 2.71 | P 2.61 | K 2.48 | F 4.17 | N 1.89
H5: C 2.27 | R 2.59 | Q 2.74 | A 2.25 | D 2.41 | L 2.09 | Y 2.15 | W 3.81 | F 2.45 | P 3.97 | G 1.21
R9: I 3.77 | E 2.75 | K 1.97 | H 3.56 | N 2.58
